# Legend:
# [1] = molecular target: HIV-1 ADA Env trimer (gp120/gp41) on LAI-chimeric molecular clone virions (HIV-1 isolate ADA | HIV-1 isolate LAI)
# [2] = molecular target: HIV-1 JR-FL Env trimer (gp120/gp41) on LAI-chimeric molecular clone virions (HIV-1 isolate JR-FL | HIV-1 isolate LAI)
# [3] = molecular target: HIV-1 JR-CSF Env trimer (gp120/gp41) on LAI-chimeric molecular clone virions (HIV-1 isolate JR-CSF | HIV-1 isolate LAI) (UniProt P20871)
# [4] = molecular target: HIV-1 ADA Env trimer (gp120/gp41) on LAI-chimeric molecular clone virions (HIV-1 isolate ADA | HIV-1 isolate LAI); test: native gel or EMSA; Blue Native PAGE: virions concentrated 100-fold, 1% DDM for 20 min on ice, 4-16% NativePAGE Bis-Tris gel at RT, Western blot with mAb cocktails to gp120 or to gp41; virions untreated or first incubated 1 h at 37-57°C or up to 96 h at 37°C
# [5] = molecular target: HIV-1 JR2 Env trimer (gp120/gp41) on LAI-chimeric molecular clone virions (HIV-1 isolate JR-FL | HIV-1 isolate LAI); test: as above
# [6] = molecular target: HIV-1 JR-CSF Env trimer (gp120/gp41) on LAI-chimeric molecular clone virions (HIV-1 isolate JR-CSF | HIV-1 isolate LAI) (UniProt P20871); test: as above
# [7] = molecular target: HIV-1 JR-FL Env trimer (gp120/gp41) on LAI-chimeric molecular clone virions (HIV-1 isolate JR-FL | HIV-1 isolate LAI); test: as above
# [8] = molecular target: HIV-1 JR-FL SOS Env trimer (A501C, T605C) on LAI-chimeric molecular clone virions (HIV-1 isolate JR-FL | HIV-1 isolate LAI); test: as above
substance,measurement,setting,value
Four-domain soluble human CD4 (receptor),sCD4 IC50: concentration of 4-domain soluble CD4 required to decrease HIV-1 infectivity by 50% (TZM-bl cells),[1],0.17 µg/mL
same,sCD4 IC50: concentration of 4-domain soluble CD4 required to decrease HIV-1 infectivity by 50% (TZM-bl cells),[2],1.2 µg/mL
same,sCD4 IC50: concentration of 4-domain soluble CD4 required to decrease HIV-1 infectivity by 50% (TZM-bl cells),[3],1.1 µg/mL
HIV-1 ADA Env trimer (gp120/gp41) on LAI-chimeric molecular clone virions (complex),stoichiometry N,[4],3
HIV-1 JR2 Env trimer (gp120/gp41) on LAI-chimeric molecular clone virions (complex),stoichiometry N,[5],3
HIV-1 JR-CSF Env trimer (gp120/gp41) on LAI-chimeric molecular clone virions (from UniProt P20871 32-503) (complex),stoichiometry N,[6],3
HIV-1 JR-FL Env trimer (gp120/gp41) on LAI-chimeric molecular clone virions (complex),stoichiometry N,[7],3
"HIV-1 JR-FL SOS Env trimer (A501C, T605C) on LAI-chimeric molecular clone virions (complex)",stoichiometry N,[8],3

# — publication PMC3124497
